Experiment [1] addresses recombinant untagged rat RBPMS-A ΔC20 (rat). Description: AUC.
The target is the same in experiment [2]. Briefly: cross-linking.
Experiment [3] has the same target. Description: AUC. This is another data set of the same source.
Experiment [4] has the same target. Briefly: SEC. On the technique in general: SEC sorts molecules by how far they enter the pores of the column.

Several values for one entry are separate records, joined by “and”; a condition that tells them apart may be missing. Equal entries are not always repeated.

By stoichiometry N is commonly meant a count of units in the complex or per binding partner. Regarding “recombinant untagged rat RBPMS-A ΔC20 (domain or fragment)”, the stoichiometry N was 2 and 3 in experiment [1]; 3 and 4 in experiment [2]; 2 in experiment [3]; 2 in experiment [4].

Source of the values: publication doi:10.1101/2023.01.23.525191.
